Measured values reported in patent publication US20220119793A1.

Target: α-thrombin
Assay: cell-based or functional assay

## human heparin cofactor II 60-sTyr-73-sTyr (from UniProt P05546 20-499)
  maximal second-order rate constant (k2) of thrombin inhibition, at ~20 µg/mL heparin: 3e+08 M⁻¹ min⁻¹
